Source: US8889392B2, “Monolignol 4-O-methyltransferases and uses thereof” (Brookhaven Science Associates, LLC, priority 2010, dated 2014)
Numbering of substitutions follows the chain as printed. Names may count otherwise. “And” between values parts separate entries of the source, which are not always exact repeats. Equal entries are not always repeated.

T1: horseradish peroxidase (Armoracia rusticana, UniProt P00433)
T1 sequence (P00433 31-338 limits assumed): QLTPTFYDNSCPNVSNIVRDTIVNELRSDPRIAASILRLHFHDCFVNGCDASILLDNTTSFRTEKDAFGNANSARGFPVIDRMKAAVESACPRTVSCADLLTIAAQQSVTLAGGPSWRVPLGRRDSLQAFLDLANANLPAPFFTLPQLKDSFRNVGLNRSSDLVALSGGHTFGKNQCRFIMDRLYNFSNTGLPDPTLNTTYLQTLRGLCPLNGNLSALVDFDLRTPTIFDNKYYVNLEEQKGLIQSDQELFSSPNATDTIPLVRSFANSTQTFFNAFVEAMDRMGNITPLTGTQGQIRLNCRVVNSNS

B1: T133I-E165I-F175I: IEMT triple mutant, monolignol 4-O methyltransferase-3 (protein, listed as Clarkia breweri)
chain: MGSTGNAEIQIIPTHSSDEEANLFAMQLASAAVLPMALKAAIELDVLEIMAKSVPPSGYISPAEIAAQLPTTNPEAPVMLDRVLRLLASYSVVTYTLRELPSGKVERLYGLAPVCKFLTKNEDGVSLAPFLLIATDKVLLEPWFYLKDAILEGGIPFNKAYGMNIFDYHGTDHRINKVFNKGMSSNSTITMKKILEMYNGFEGLTTIVDVGGGTGAVASMIVAKYPSINAINFDLPHVIQDAPAFSGVEHLGGDMFDGVPKGDAIFIKWICHDWSDEHCLKLLKNCYAALPDHGKVIVAEYILPPSPDPSIATKVVIHTDALMLAYNPGGKERTEKEFQALAMASGFRGFKVASCAFNTYVMEFLKTA
B2: T133I-E165I-F175I-F166W: IEMT tetra mutant derived from MOMT3 (protein)
chain: B1 chain with F166W
B3: T133I-E165I-F175I-F166W-H169F: IEMT penta mutant (MOMT5) (protein)
chain: B1 chain with F166W, H169F
B4: T133I-E165I-F175I-Y161W: IEMT tetra mutant derived from MOMT3 (protein)
chain: B1 chain with Y161W
B5: T133I-E165I-F175I-F166W-T135N: IEMT penta mutant derived from MOMT3 (protein)
chain: B1 chain with T135N, F166W
B6: T133I-E165I-F175I-F166W-H169W: IEMT penta mutant derived from MOMT3 (protein)
chain: B1 chain with F166W, H169W
B7: T133I-E165I-F175I-Y326F-N327V: IEMT penta mutant derived from MOMT3 (protein)
chain: B1 chain with Y326F, N327V
B8: IEMT wt: C. breweri (iso)eugenol 4-O-methyltransferase, wild type (GenBank U86760.1, SEQ ID NO: 1) (protein, listed as Clarkia breweri)
chain: B1 chain with I133T, I165E, I175F
B9: T133I-E165I-F175I-A325V: IEMT tetra mutant derived from MOMT3 (protein)
chain: B1 chain with A325V
B10: T133I-E165I-F175I-H169F: MOMT4 tetra mutant expressed in Arabidopsis (protein)
chain: B1 chain with H169F
B11: T133I-E165I-F175I-H169M: IEMT tetra mutant derived from MOMT3 (protein)
chain: B1 chain with H169M
B12: T133L-E165F: IEMT double mutant variant (protein)
chain: B1 chain with I133L, I165F, I175F
B13: T133I-E165I-F175I-Y161F: IEMT tetra mutant derived from MOMT3 (protein)
chain: B1 chain with Y161F
B14: T133L/L139Q/E165F: IEMT triple mutant variant (protein, listed as Clarkia breweri)
chain: B1 chain with I133L, L139Q, I165F, I175F

Tested on: not listed separately
Experiment: Kinetic parameters for 4-O-methylation of sinapyl alcohol
Assay type: biochemical
Conditions: sinapyl alcohol
With B1 the catalytic efficiency was 1463 M⁻¹ s⁻¹ and the “fold increase of catalytic efficiency compared with the wild-type enzyme” value (from here on “fold increase of catalytic efficiency”) was “more than 70 fold”.
With B2 the “fold increase of catalytic efficiency” value was roughly 200 fold.
In the case of B3, the “fold increase of catalytic efficiency” value is reported as roughly 200 fold.

Same assay, conditions: substrate sinapyl alcohol, 4-O-methylation
For B1, the Km was 120 µM and 119 µM and the Vmax was 275 ± 10 nmol/mg/min and 260 ± 6 nmol/mg/min.
B2 gave a Km of 47 ± 8 µM and a Vmax of 147 ± 4 nmol/mg/min.
B4 gave a Km of 219 ± 19 µM and a Vmax of 259 ± 8 nmol/mg/min.
B5 gave a Km of 54 ± 14 µM and a Vmax of 115 ± 9 nmol/mg/min.
For B6, the Km was 67 ± 10 µM and the Vmax was 160 ± 12 nmol/mg/min.
B7 gave a Km of 340 ± 30 µM and a Vmax of 429 ± 15 nmol/mg/min.
B3 gave a Km of 37 ± 7 µM and a Vmax of 124 ± 7 nmol/mg/min.
B8 gave a Km of 1500 ± 214 µM and a Vmax of 45 ± 4 nmol/mg/min.
In the case of B9, the Km is reported as 97 ± 7 µM and the Vmax is reported as 214 ± 4 nmol/mg/min.
Molecule B10 has a Km of 68 ± 11 µM and a Vmax of 408 ± 17 nmol/mg/min.
Molecule B11 has a Km of 89 ± 10 µM and a Vmax of 370 ± 11 nmol/mg/min.
B12 showed a Km of 382 ± 32 µM and a Vmax of 103 ± 4 nmol/mg/min.
For B13, the Km was 206 ± 25 µM and the Vmax was 289 ± 12 nmol/mg/min.

Molecular target: T1, horseradish peroxidase
Experiment: Peroxidase-catalyzed dehydrogenative polymerization in vitro
Assay type: biochemical
Conditions: incubation with horseradish peroxidase and H2O2
Source text: In vitro dehydrogenative polymerization is commonly used as a biomimetic model to explore in vivo lignin formation. Using the novel mutant variants, we produced methylated monolignol—the 4-O-methoxy-coniferyl alcohol, and subjected it to peroxidase-catalyzed dehydrogenative polymerization, compared to the classic p-coniferyl alcohol. […] The oligomer products include a predominant dimer, the β-5 inter subunit linkage, G(8-5)G, and a few minor peaks of the G(8-O-4)G and G(8-8)G dimers.
For `COc1cc(/C=C/CO)ccc1O` [coniferyl alcohol, p-coniferyl alcohol], the conversion and oligomerization was “oxidized and conjugated, yielding several oligolignols”.

Tested on: not listed separately
Experiment: Substrate specificity of mutant variants
Assay type: biochemical
Conditions: p-hydroxycinnamyl alcohols and p-hydroxycinnamaldehydes
Source text: Kinetically, the mutant T133L/E165I/F175I equally preferred two major types of monolignols in angiosperms, i.e., coniferyl and sinapyl alcohols, whereas the T133L/L139Q/E165F variant favored coniferyl slightly over the sinapyl alcohol.
With B1 the “activity for lignin monomeric precursors” value was “high activities”.
For B8, the “activity for lignin monomeric precursors” value was “barely measurable”.
With B14 the “activity for lignin monomeric precursors” value was “high activities”.

Tested on: not listed separately
Experiment: Kinetic parameters for 4-O-methylation of coniferyl alcohol
Assay type: biochemical
Conditions: coniferyl alcohol
Description: E. coli transformants were inoculated in 96 well plates. Protein production was induced with 0.2 mM isopropyl β-D-1-thiogalactopyranoside, and the harvested cell cultures were lysed with 60 μl of BugBuster solution per well (Novagen). Enzymatic activity was screened using the lysates directly or after purification of the recombinant protein in a 96 well purification plate.
Screening was performed in a polypropylene microplate (Bio-Rad) containing 50 μl of the reaction in each well, 500 μM p-coniferyl-alcohol substrates, and 500 μM S-adenosyl-L-methionine augmented with (isotopic assay) or without (LC-MS assay) 0.005 μCi of [methyl-^14C]S-adenosyl-L-methionine, and 20 μl of lysates or purified protein (Ni^+ column eluate). (see Bhuiya, M. W. and Liu, C. J. (2010) J. Biol. Chem. 285:277-285 and its supplemental material).
To further optimize the catalytic efficiency of MOMT on the desired para-methylation of monolignols, based on the crystal structure of MOMT3, we identified additional amino acid residues that either directly contact or are proximate to the bound coniferyl alcohol, particularly the residues near the 3-methoxy-buried pocket. They are F130, A134, V138, L139, F157, Y161, N164, F166, Y168, H169, H173, F179, M183, N186, T319, L322, M323, A325, Y326, and N327. We then carried out the next round saturation mutagenesis on the recognized amino acid sites using MOMT3 as the parental template. […] The MOMT4 enzyme predominantly reacted with coniferyl and sinapyl alcohols, with preference for the latter, while the MOMT5 favors for coniferyl alcohol.
In the case of B1, the catalytic efficiency is reported as 1245 M⁻¹ s⁻¹ and the “fold increase of catalytic efficiency” value is reported as “more than 70 fold”.
With B2 the “fold increase of catalytic efficiency” value was roughly 200 fold.
With B3 the “fold increase of catalytic efficiency” value was roughly 200 fold.

Same assay, conditions: substrate coniferyl alcohol, 4-O-methylation
For B1, the Km was 279 µM and 199 µM and the Vmax was 556 ± 35 nmol/mg/min and 371 ± 15 nmol/mg/min.
B2 showed a Km of 117 ± 15 µM and a Vmax of 496 ± 8 nmol/mg/min.
Molecule B4 has a Km of 196 ± 34 µM and a Vmax of 584 ± 37 nmol/mg/min.
With B5 the Km was 167 ± 11 µM and the Vmax was 431 ± 12 nmol/mg/min.
Work on B6 yielded a Km of 127 ± 8 µM and a Vmax of 392 ± 9 nmol/mg/min.
Work on B7 yielded a Km of 196 ± 44 µM and a Vmax of 520 ± 25 nmol/mg/min.
Molecule B3 has a Km of 80 ± 6 µM and a Vmax of 440 ± 10 nmol/mg/min.
In the case of B8, the Km is reported as 1590 ± 182 µM and the Vmax is reported as 42 ± 4 nmol/mg/min.
B9 gave a Km of 236 ± 50 µM and a Vmax of 446 ± 33 nmol/mg/min.
B10 showed a Km of 193 ± 25 µM and a Vmax of 793 ± 32 nmol/mg/min.
Molecule B11 has a Km of 220 ± 27 µM and a Vmax of 629 ± 26 nmol/mg/min.
Work on B12 yielded a Km of 280 ± 18 µM and a Vmax of 117 ± 3 nmol/mg/min.
With B13 the Km was 197 ± 21 µM and the Vmax was 642 ± 24 nmol/mg/min.
